Data: article PMC6437178

Target: engineered Salmo salar Ctr1 crystallization construct sCtr1_(cryst) (Salmo salar | not stated)
Assay: crystal structure; hanging-drop vapor diffusion at 20 °C; 26-28% PEG 400, 50 mM zinc acetate, 50 mM sodium cacodylate pH 5.9; protein in CYMAL-5; Cu^+-free (3.0 Å) and Cu^+-bound (3.2 Å) states; trimer on the crystallographic three-fold axis

stoichiometry N: 3
Substance: engineered Salmo salar Ctr1 crystallization construct sCtr1_(cryst) (from UniProt A0A1S3KYH5 41-93; A0A1S3KYH5 121-184)
